Biological target: T1, Rec27 (untagged, His6-SUMO tag removed by Ulp1) (S. pombe, UniProt Q9USR4 1-125)
T1 sequence (looked up): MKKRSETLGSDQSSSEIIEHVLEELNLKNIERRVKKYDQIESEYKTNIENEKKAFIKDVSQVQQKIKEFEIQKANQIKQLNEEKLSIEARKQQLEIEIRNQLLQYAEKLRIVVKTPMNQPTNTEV
Test: mass photometry

B1: Rec25 (untagged) (natural protein, S. pombe, UniProt Q9C115 1-150, looked up)
chain: MVKGSVTNTSSIVKQFEKSSIKHETETIAFAKQFINECIREFQEQKDNVVEEKNTDQNHQNQNQEGVIIEIYQELLQKVDLISSELRQNLSSLQLRFQEVERDTGHDLLNVLNSLSQEARLAQKVLEEDGSQQGSQLIQGLLTCFQSTGN
Q: For B1, which “stoichiometry N” value is on record?
A: The value was 1.

B2: Mug20 (untagged) (natural protein, S. pombe, UniProt Q9HGN4 1-151, looked up)
chain: MSEIITSLQTELSNRHANMVSEAVLAFSEHHDSALHSYFLNARVKDVILESLRTTEEKLRALDKLQLDASKNLSNLLVEYNSINAELESVNSKISSISSQEYALEEFQALSQNFEKNLVQHRRNSQNKLKCAMEKLKMIETSTHKAILDNF
Q: With B2 as the binder, how does the “stoichiometry N” value read?
A: The value was 1.
